Results on 1 protein are retold here after article PMC12784962, “https://orcid.org/0000-0002-3633-7823 Baral Joydeep Department of Bioscience and Biotechnology, Indian Institute of Technology Kharagpur, West Midnapore 721302, West Bengal, India”.

This series concerns the molecule itself. In words: cryo-EM structure; monomer to monomer within the homodimer; 5 µM mKu dimer with equimolar 40-bp linear dsDNA or short hairpin DNA, 30 min at 4°C.

B1: mycobacterial Ku (mKu), Mycobacterium tuberculosis, wild type (natural protein)
chain: MRAIWTGSIAFGLVNVPVKVYSATADHDIRFHQVHAKDNGRIRYKRVCEACGEVVDYRDLARAYESGDGQMVAITDDDIASLPEERSREIEVLEFVPAADVDPMMFDRSYFLEPDSKSSKSYVLLAKTLAETDRMAIVHFTLRNKTRLAALRVKDFGKREVMMVHTLLWPDEIRDPDFPVLDQKVEIKPAELKMAGQVVDSMADDFNPDRYHDTYQEQLQELIDTKLEGGQAFTAEDQPRLLDEPEDVSDLLAKLEASVKARSKANSNVPTPP
notes: Ku protein of Mycobacterium tuberculosis, gene Rv0937c, 31 kDa; the C-terminal 46 residues are not seen in the maps; also called mKu WT; mKu-WT
For B1, the binding result is on record as “binds”.
